B1: Guanyl-specific ribonuclease Sa3, P30289 (parent)
chain: MRIPPRLVALAGAAAVAATLIAGPVAAAAPASHAVAASSAASASVKAVGRVCYSALPSQAHDTLDLIDEGGPFPYSQDGVVFQNREGLLPAHSTGYYHEYTVITPGSPTRGARRIITGQQWQEDYYTADHYASFRRVDFAC
B2: Guanyl-specific ribonuclease Sa, P05798 (parent)
chain: DVSGTVCLSALPPEATDTLNLIASDGPFPYSQDGVVFQNRESVLPTQSYGYYHEYTVITPGARTRGTRRIITGEATQEDYYTGDHYATFSLIDQTC

Variants of: B1
Conditions: Kitasatospora aureofaciens; pH 7; 25 °C; Thermal; CD; MOPS 30 mM; reversible: yes(>95 %); structure 1MGR; whole UniProt chain shown

Row | Variant | ddG of mutation (higher = less stable) [kcal/mol]
1 | MRIPPRLVALAGAAAVAATLIAGPVAAAAPASHAVAASSAASASVKAVGRVCYSALPSQAHDTLDLIDEGGPFPYSQDGVVFQNREGLLPAHSTGYYHEYTVITPGSPTRGARRIITGQQWQEDFYTADHYASFRRVDFAC [Y125F] | 1.5
2 | MRIPPRLVALAGAAAVAATLIAGPVAAAAPASHAVAASSAASASVKAVGRVCYSALPSQAHDTLDLIDEGGPFPYSQDGVVFQNREGLLPAHSTGYFHEYTVITPGSPTRGARRIITGQQWQEDYYTADHYASFRRVDFAC [Y97F] | 2.1
3 | MRIPPRLVALAGAAAVAATLIAGPVAAAAPASHAVAASSAASASVKAVGRVCYSALPSQAHDTLDLIDEGGPFPYSQDGVVFQNREGLLPAHSTGYYHEYTVITPGSPTRGARRIITGQQWQEDYFTADHYASFRRVDFAC [Y126F] | 1
4 | MRIPPRLVALAGAAAVAATLIAGPVAAAAPASHAVAASSAASASVKAVGRVCYSALPSQAHDTLDLIDEGGPFPYSQDGVVFQNREGLLPAHSTGYYHEYTVITPGSPTRGARRIITGQQWQEDYYTADHFASFRRVDFAC [Y131F] | 0
5 | MRIPPRLVALAGAAAVAATLIAGPVAAAAPASHAVAASSAASASVKAVGRVCYSALPSQAHDTLDLIDEGGPFPFSQDGVVFQNREGLLPAHSTGYYHEYTVITPGSPTRGARRIITGQQWQEDYYTADHYASFRRVDFAC [Y75F] | -0.5
6 | MRIPPRLVALAGAAAVAATLIAGPVAAAAPASHAVAASSAASASVKAVGRVCYSALPSQAHDTLDLIDEGGPFPYSQDGVVFQNREGLLPAHSTGYYHEFTVITPGSPTRGARRIITGQQWQEDYYTADHYASFRRVDFAC [Y100F] | 0.7

Variants of: B2
Conditions: Kitasatospora aureofaciens; pH 7; 25 °C; Thermal; CD; MOPS 30 mM; reversible: yes(>95 %); structure 1RGG; whole UniProt chain shown

Row | Variant | ddG of mutation (higher = less stable) [kcal/mol]
7 | DVSGTVCLSALPPEATDTLNLIASDGPFPYSQDGVVFQNRESVLPTQSYGYYHEYTVITPGARTRGTRRIITGEATQEDFYTGDHYATFSLIDQTC [Y80F] | 1.5
8 | DVSGTVCLSALPPEATDTLNLIASDGPFPYSQDGVVFQNRESVLPTQSYGYYHEYTVITPGARTRGTRRIITGEATQEDYYTGDHFATFSLIDQTC [Y86F] | 0.3
9 | DVSGTVCLSALPPEATDTLNLIASDGPFPYSQDGVVFQNRESVLPTQSFGYYHEYTVITPGARTRGTRRIITGEATQEDYYTGDHYATFSLIDQTC [Y49F] | 0.2
10 | DVSGTVCLSALPPEATDTLNLIASDGPFPFSQDGVVFQNRESVLPTQSYGYYHEYTVITPGARTRGTRRIITGEATQEDYYTGDHYATFSLIDQTC [Y30F] | -0.4
11 | DVSGTVCLSALPPEATDTLNLIASDGPFPYSQDGVVFQNRESVLPTQSYGYYHEYTVITPGARTRGTRRIITGEATQEDYFTGDHYATFSLIDQTC [Y81F] | 1.2
12 | DVSGTVCLSALPPEATDTLNLIASDGPFPYSQDGVVFQNRESVLPTQSYGYYHEFTVITPGARTRGTRRIITGEATQEDYYTGDHYATFSLIDQTC [Y55F] | 0.6
13 | DVSGTVCLSALPPEATDTLNLIASDGPFPYSQDGVVFQNRESVLPTQSYGYFHEYTVITPGARTRGTRRIITGEATQEDYYTGDHYATFSLIDQTC [Y52F] | 3.6

Source: FireProtDB (doi:10.1006/jmbi.2001.4956)
